Measured values published in doi:10.1101/2022.12.03.518990.
Where two headings read alike, the source gives them in different places.

Assays:
[1] = molecular target: GMPCPP-stabilized microtubules (TAMRA-labeled, polymerized from bovine brain tubulin) (bovine) (UniProt Q6B856); experiment: single-molecule TIRF microscopy, dwell times
[2] = molecular target: GMPCPP-stabilized microtubules (TAMRA-labeled, polymerized from bovine brain tubulin) (bovine) (UniProt Q6B856); experiment: single-molecule TIRF microscopy, dwell times; remark: listed apart in the source

Chain of UniProt Q6B856 (Q6B856 whole entry, looked up): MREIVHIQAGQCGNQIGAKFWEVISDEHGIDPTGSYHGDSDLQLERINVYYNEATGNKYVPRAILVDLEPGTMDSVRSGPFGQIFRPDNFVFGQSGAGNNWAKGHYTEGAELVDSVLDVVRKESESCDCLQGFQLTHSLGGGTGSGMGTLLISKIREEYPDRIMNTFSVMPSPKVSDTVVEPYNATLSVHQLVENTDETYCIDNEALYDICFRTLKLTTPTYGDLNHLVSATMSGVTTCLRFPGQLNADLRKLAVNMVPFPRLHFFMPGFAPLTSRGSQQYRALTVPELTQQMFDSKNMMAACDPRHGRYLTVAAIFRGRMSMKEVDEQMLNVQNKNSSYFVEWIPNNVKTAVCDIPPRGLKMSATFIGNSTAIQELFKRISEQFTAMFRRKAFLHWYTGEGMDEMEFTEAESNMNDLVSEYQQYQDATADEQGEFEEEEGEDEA

A mean dwell time [1] of 0.53 s and a mean dwell time [2] of 3.8 s were found for “His-EGFP-L-TOG2-S (EGFP-tagged TOG2 domain and serine-arginine-rich region of human CLASP2α) (domain or fragment)” in this work.
